Source: publication PMC4775424 (Structure (London, England : 1993), 2016)
“Also recorded” adds a separate entry of the source.

What was measured:
human ORC1 BAH domain = conditions: human version; ref Kuo et al., 2012; cited from earlier work
mouse ORC1 BAH domain = conditions: mouse version; four-residue aromatic cage; ref Kuo et al., 2012; cited from earlier work
[1] = target: H3 peptide dimethylated at K4; experiment: ITC
[2] = target: H3 peptide monomethylated at K4; experiment: ITC
[3] = target: unmodified H3(1-15) peptide; experiment: ITC

Row | fold decrease of the binding against the unmodified H3 peptide [1] [fold] | fold decrease of the binding against the unmodified H3 peptide [2] [fold] | Kd [3] [nM] | Molecule | recognition by ORC1 BAH domain (human ORC1 BAH domain) | recognition by ORC1 BAH domain (mouse ORC1 BAH domain)
1 | – | – | – | H4K20me2: histone mark H4K20me2 / H4K20me2 peptide bound by metazoan ORC1 BAH domains | specifically recognize | can use a four-residue aromatic cage to recognize the methyllysine of H4K20me2; also recorded: specifically recognize
2 | 10 | 4 | 3000 | Arabidopsis thaliana ORC1b BAH-PHD cassette (domain or fragment) SETIKKTKKKKRVYYNKVEFDETEFEIGDDVYVKRREDSNSDEEEDPEIEDCQICFKSDTNIMIECDDCLGGFHLKCLKPPLKEVPEGDWICQFCEVKKSGQSQTLDLPKPPEGKKLARTMREKLLSGDLWAARIDKLWKEVDDGVYWIRARWYMIPEETVSGRQPHNLKRELYLTNDFADIEMECILRHCSVKCPKEFSKASNDGDDVFLCEYEYDVHWRSFKRLAELADG | – | –
